Reference: patent publication US20230272055A1 (Incyte, published 2023)

T1: human mutCALR on BaF3 cells stably expressing human MPL and human mutCALR (MPL-mutCALR cells) (human)
T1 construct: also called mutant calreticulin
T1 chain: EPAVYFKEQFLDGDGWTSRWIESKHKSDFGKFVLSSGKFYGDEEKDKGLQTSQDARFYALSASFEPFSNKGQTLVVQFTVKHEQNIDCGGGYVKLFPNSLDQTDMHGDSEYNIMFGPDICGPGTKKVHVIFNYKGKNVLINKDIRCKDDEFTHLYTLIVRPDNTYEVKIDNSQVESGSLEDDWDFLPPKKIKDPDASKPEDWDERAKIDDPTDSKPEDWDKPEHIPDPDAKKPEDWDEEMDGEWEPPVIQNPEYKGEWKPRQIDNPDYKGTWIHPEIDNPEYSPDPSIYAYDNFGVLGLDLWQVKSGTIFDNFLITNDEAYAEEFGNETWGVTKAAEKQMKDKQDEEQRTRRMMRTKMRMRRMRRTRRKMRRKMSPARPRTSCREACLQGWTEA

B1: anti-mutCALR antibody clone 62 (antibody, human IgG1, lambda, N297A, V domains shown)
VH: EVQLVQSGAEVKKPGASVKVSCKVSGYTLTELSMQWVRQAPGKGLEWMGGFDPDSGETMYAEKFQGRLTVTEDTSTDTVYMELSSLRSEDTAVYFCATSPGYDFFDYWGQGTLVTVSS
VL: QSALTQPASVSGSPGQSITISCTGTSSDVGGYNYVSWYQQHPGKAPKLMIYEVSNRPSGVSNRFSGSNSGNTATLTINRVEAGDEADYYCQVWDSSNDLLIFGGGTKLTVLG
B2: anti-mutCALR antibody clone 176 (antibody, human IgG1, lambda, N297A, V domains shown)
VH: EVQLVQSGAEVKKPGASVKVSCKVSGYTLTELSMQWVRQAPGKGLEWMGGFDPDAGETMYAEKFQGRLTVTEDTSTDTVYMELSSLRSEDTAVYFCATSPGYDFFDYWGQGTLVTVSS
VL: SYVLTQPPSVSVAPGQTARITCGGSDIGDEIVHWYQQKPGQAPVLVVYDDSDRPSGIPERFSGSNSGNTATLTISRAQAGDEADYYCQVWDSSSDHLIFGGGTKLTVLG
B3: anti-mutCALR antibody clone 179 (antibody, human IgG1, lambda, N297A, V domains shown)
VH: EVQLVQSGAEVKKPGASVKVSCKVSGYTLTELSMQWVRQAPGKGLEWMGGFDPDDAETMYAEKFQGRLTVTEDTSTDTVYMELSSLRSEDTAVYFCATSPGYDFFDYWGQGTLVTVSS
VL: SYVLTQPPSVSVAPGQTARITCGGSDIGDEIVHWYQQKPGQAPVLVVYDDSDRPSGIPERFSGSNSGNTATLTISRAQAGDEADYYCQVWDSSSDHLIFGGGTKLTVLG
B4: anti-mutCALR antibody clone 178 (antibody, human IgG1, lambda, N297A, V domains shown)
VH: EVQLVQSGAEVKKPGASVKVSCKVSGYTLTELSMQWVRQAPGKGLEWMGGFDPDEGETMYAEKFQGRLTVTEDTSTDTVYMELSSLRSEDTAVYFCATSPGYDFFDYWGQGTLVTVSS
VL: SYVLTQPPSVSVAPGQTARITCGGSDIGDEIVHWYQQKPGQAPVLVVYDDSDRPSGIPERFSGSNSGNTATLTISRAQAGDEADYYCQVWDSSSDHLIFGGGTKLTVLG
B5: anti-mutCALR antibody clone 177 (antibody, human IgG1, lambda, N297A, V domains shown)
VH: EVQLVQSGAEVKKPGASVKVSCKVSGYTLTELSMQWVRQAPGKGLEWMGGFDPDSGETMYAEKFQGRLTVTEDTSTDTVYMELSSLRSEDTAVYFCATSPGYDFFDYWGQGTLVTVSS
VL: SYVLTQPPSVSVAPGQTARITCGGSDIGDEIVHWYQQKPGQAPVLVVYDDSDRPSGIPERFSGSNSGNTATLTISRAQAGDEADYYCQVWDSSSDHLIFGGGTKLTVLG
B6: anti-mutCALR antibody clone 70 (antibody, human IgG1, lambda, N297A, V domains shown)
VH: EVQLVQSGAEVKKPGASVKVSCKVSGYTLTELSMQWVRQAPGKGLEWMGGFDPDDGETMYAEKFQGRLTVTEDTSTDTVYMELSSLRSEDTAVYFCATSPGYDFFDYWGQGTLVTVSS
VL: SYVLTQPPSVSVAPGKTARITCTGTSSDVGGYNYVSWYQQKPGQAPVLVVYEVSNRPSGIPERFSGSNSGNTATLTISRVEAGDEADYYCQVWDSSNDLLIFGGGTKLTVLG
B7: anti-mutCALR antibody clone 67 (antibody, human IgG1, lambda, N297A, V domains shown)
VH: EVQLVQSGAEVKKPGASVKVSCKVSGYTLTELSMQWVRQAPGKGLEWMGGFDPDSGETMYAEKFQGRLTVTEDTSTDTVYMELRSLTSEDTALYFCATSPGYDFFDYWGQGTLVTVSS
VL: SYVLTQPPSVSVAPGKTARITCTGTSSDVGGYNYVSWYQQKPGQAPVLVVYEVSNRPSGIPERFSGSNSGNTATLTISRVEAGDEADYYCQVWDSSNDLLIFGGGTKLTVLG
B8: anti-mutCALR antibody clone 65 (antibody, human IgG1, lambda, N297A, V domains shown)
VH: EVQLVQSGAEVKKPGASVKVSCKVSGYTLTELSMQWVRQAPGKGLEWMGGFDPDDGETMYAEKFQGRLTVTEDTSTDTVYMELRSLTSEDTALYFCATSPGYDFFDYWGQGTLVTVSS
VL: SYVLTQPPSVSVAPGKTARITCTGTSSDVGGYNYVSWYQQKPGQAPVLVVYEVSNRPSGIPERFSGSNSGNTATLTISRVEAGDEADYYCQVWDSSNDLLIFGGGTKLTVLG
B9: anti-mutCALR antibody clone 68 (antibody, human IgG1, lambda, N297A, V domains shown)
VH: EVQLVQSGAEVKKPGASVKVSCKVSGYTLTELSMQWVRQAPGKGLEWMGGFDPDEGETMYAEKFQGRLTVTEDTSTDTVYMELRSLTSEDTALYFCATSPGYDFFDYWGQGTLVTVSS
VL: SYVLTQPPSVSVAPGKTARITCTGTSSDVGGYNYVSWYQQKPGQAPVLVVYEVSNRPSGIPERFSGSNSGNTATLTISRVEAGDEADYYCQVWDSSNDLLIFGGGTKLTVLG
B10: anti-mutCALR antibody clone 64 (antibody, human IgG1, lambda, N297A, V domains shown)
VH: EVQLVQSGAEVKKPGASVKVSCKVSGYTLTELSMQWVRQAPGKGLEWMGGFDPDDAETMYAEKFQGRLTVTEDTSTDTVYMELSSLRSEDTAVYFCATSPGYDFFDYWGQGTLVTVSS
VL: QSALTQPASVSGSPGQSITISCTGTSSDVGGYNYVSWYQQHPGKAPKLMIYEVSNRPSGVSNRFSGSNSGNTATLTINRVEAGDEADYYCQVWDSSNDLLIFGGGTKLTVLG
B11: anti-mutCALR antibody clone 71 (antibody, human IgG1, lambda, N297A, V domains shown)
VH: EVQLVQSGAEVKKPGASVKVSCKVSGYTLTELSMQWVRQAPGKGLEWMGGFDPDAGETMYAEKFQGRLTVTEDTSTDTVYMELSSLRSEDTAVYFCATSPGYDFFDYWGQGTLVTVSS
VL: SYVLTQPPSVSVAPGKTARITCTGTSSDVGGYNYVSWYQQKPGQAPVLVVYEVSNRPSGIPERFSGSNSGNTATLTISRVEAGDEADYYCQVWDSSNDLLIFGGGTKLTVLG
B12: anti-mutCALR antibody clone 73 (antibody, human IgG1, lambda, N297A, V domains shown)
VH: EVQLVQSGAEVKKPGASVKVSCKVSGYTLTELSMQWVRQAPGKGLEWMGGFDPDEGETMYAEKFQGRLTVTEDTSTDTVYMELSSLRSEDTAVYFCATSPGYDFFDYWGQGTLVTVSS
VL: SYVLTQPPSVSVAPGKTARITCTGTSSDVGGYNYVSWYQQKPGQAPVLVVYEVSNRPSGIPERFSGSNSGNTATLTISRVEAGDEADYYCQVWDSSNDLLIFGGGTKLTVLG
B13: anti-mutCALR antibody clone 63 (antibody, human IgG1, lambda, N297A, V domains shown)
VH: EVQLVQSGAEVKKPGASVKVSCKVSGYTLTELSMQWVRQAPGKGLEWMGGFDPDEGETMYAEKFQGRLTVTEDTSTDTVYMELSSLRSEDTAVYFCATSPGYDFFDYWGQGTLVTVSS
VL: QSALTQPASVSGSPGQSITISCTGTSSDVGGYNYVSWYQQHPGKAPKLMIYEVSNRPSGVSNRFSGSNSGNTATLTINRVEAGDEADYYCQVWDSSNDLLIFGGGTKLTVLG
B14: anti-mutCALR antibody clone 74 (antibody, human IgG1, lambda, N297A, V domains shown)
VH: EVQLVQSGAEVKKPGASVKVSCKVSGYTLTELSMQWVRQAPGKGLEWMGGFDPDDAETMYAEKFQGRLTVTEDTSTDTVYMELSSLRSEDTAVYFCATSPGYDFFDYWGQGTLVTVSS
VL: SYVLTQPPSVSVAPGKTARITCTGTSSDVGGYNYVSWYQQKPGQAPVLVVYEVSNRPSGIPERFSGSNSGNTATLTISRVEAGDEADYYCQVWDSSNDLLIFGGGTKLTVLG
B15: anti-mutCALR antibody clone 66 (antibody, human IgG1, lambda, N297A, V domains shown)
VH: EVQLVQSGAEVKKPGASVKVSCKVSGYTLTELSMQWVRQAPGKGLEWMGGFDPDAGETMYAEKFQGRLTVTEDTSTDTVYMELRSLTSEDTALYFCATSPGYDFFDYWGQGTLVTVSS
VL: SYVLTQPPSVSVAPGKTARITCTGTSSDVGGYNYVSWYQQKPGQAPVLVVYEVSNRPSGIPERFSGSNSGNTATLTISRVEAGDEADYYCQVWDSSNDLLIFGGGTKLTVLG
B16: anti-mutCALR antibody clone 72 (antibody, human IgG1, lambda, N297A, V domains shown)
VH: EVQLVQSGAEVKKPGASVKVSCKVSGYTLTELSMQWVRQAPGKGLEWMGGFDPDSGETMYAEKFQGRLTVTEDTSTDTVYMELSSLRSEDTAVYFCATSPGYDFFDYWGQGTLVTVSS
VL: SYVLTQPPSVSVAPGKTARITCTGTSSDVGGYNYVSWYQQKPGQAPVLVVYEVSNRPSGIPERFSGSNSGNTATLTISRVEAGDEADYYCQVWDSSNDLLIFGGGTKLTVLG
B17: anti-mutCALR antibody clone 69 (antibody, human IgG1, lambda, N297A, V domains shown)
VH: EVQLVQSGAEVKKPGASVKVSCKVSGYTLTELSMQWVRQAPGKGLEWMGGFDPDDAETMYAEKFQGRLTVTEDTSTDTVYMELRSLTSEDTALYFCATSPGYDFFDYWGQGTLVTVSS
VL: SYVLTQPPSVSVAPGKTARITCTGTSSDVGGYNYVSWYQQKPGQAPVLVVYEVSNRPSGIPERFSGSNSGNTATLTISRVEAGDEADYYCQVWDSSNDLLIFGGGTKLTVLG

Target: T1, human mutCALR on BaF3 cells stably …
Assay: flow cytometry, BaF3 MPL-mutCALR cells
Method: On the day of the assay, cells were washed and resuspended in assay buffer. Approximately 200,000 cells/well were added to 96-well plates and stained with the indicated concentration of antibodies for 30 minutes on ice. Cells were then washed and stained with goat anti-human secondary conjugated to R-phycoerythrin (R-PE) (Jackson Immuno Research Laboratories) for 30 minutes on ice. The cells were then washed and analyzed by flow cytometry.

Point of comparison: B9, EC50 3.3 ng/mL. Against it:
- B1 — 1.6-fold higher, 5.4 ng/mL
- B2 — within 1.5-fold, 3.1 ng/mL
- B3 — 1.8-fold higher, 5.8 ng/mL
- B4 — within 1.5-fold, 4.1 ng/mL
- B5 — within 1.5-fold, 3.4 ng/mL
- B6 — 1.7-fold lower, 1.9 ng/mL
- B7 — 2.5-fold higher, 8.1 ng/mL
- B8 — 1.8-fold higher, 5.9 ng/mL
- B10 — 2.2-fold higher, 7.2 ng/mL
- B11 — 2.9-fold higher, 9.7 ng/mL
- B12 — 1.6-fold lower, 2 ng/mL
- B13 — 1.7-fold higher, 5.5 ng/mL
- B14 — within 1.5-fold, 2.2 ng/mL
- B15 — 1.8-fold higher, 5.8 ng/mL
- B16 — the same, 3.3 ng/mL
- B17 — 1.6-fold lower, 2.1 ng/mL

Point of comparison: B2, “MPL-mutCALR AUC” value 48400. Against it:
- B1 — higher, 58800
- B3 — higher, 60200
- B4 — higher, 63600
- B5 — higher, 52900
- B6 — higher, 84800
- B7 — higher, 63900
- B8 — higher, 81200
- B9 — higher, 68700
- B10 — higher, 73200
- B11 — higher, 55900
- B12 — higher, 67600
- B13 — higher, 69100
- B14 — higher, 81800
- B15 — higher, 65000
- B16 — higher, 58000
- B17 — higher, 71800
